Measured values from patent publication US20260098102A1 (NATIONAL UNIVERSITY CORPORATION KOBE UNIVERSITY, published 2026).
Blank lines part the entries; values can stand above or below the binder they belong to.

Key:
mouse SIRPA BALB/c = target: T1, mouse SIRPA BALB/c (mouse (BALB/c), UniProt P97797 35-513); test: cell-based ELISA, transfected 293α cells
T1 construct: FLAG-tagged (pFLAG V5-DEST), on 293α cells
T1 chain: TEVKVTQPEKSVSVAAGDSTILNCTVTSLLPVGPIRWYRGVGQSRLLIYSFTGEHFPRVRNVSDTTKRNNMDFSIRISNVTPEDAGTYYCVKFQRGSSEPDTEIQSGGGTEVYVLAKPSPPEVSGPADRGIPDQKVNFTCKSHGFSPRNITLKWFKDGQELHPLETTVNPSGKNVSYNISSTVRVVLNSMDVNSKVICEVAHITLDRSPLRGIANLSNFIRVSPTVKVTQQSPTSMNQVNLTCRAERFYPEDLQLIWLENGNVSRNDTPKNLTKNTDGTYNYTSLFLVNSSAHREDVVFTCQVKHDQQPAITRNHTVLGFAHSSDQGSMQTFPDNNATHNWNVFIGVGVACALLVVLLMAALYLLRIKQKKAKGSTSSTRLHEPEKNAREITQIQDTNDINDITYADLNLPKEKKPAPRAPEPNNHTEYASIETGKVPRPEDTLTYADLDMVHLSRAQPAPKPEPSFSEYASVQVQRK
Method: (§1) After the culture supernatant of 293α cells into which the pFLAG V5-DEST-monkey SIRPA or pFLAG V5-DEST-mouse SIRPA expression vector was introduced and the pFLAG V5-DEST-introduced 293α cells prepared in Example 1)-5-2 was removed, binding to monkey or mouse SIRPA was evaluated in the same manner as for the binding activity of human SIRPA.

mouse SIRPA_129 = target: T2, mouse SIRPA_129 (mouse (129), UniProt P97797 32-513); test: cell-based ELISA, transfected 293α cells
T2 construct: FLAG-tagged (pFLAG V5-DEST), on 293α cells; also called 129sv
T2 chain: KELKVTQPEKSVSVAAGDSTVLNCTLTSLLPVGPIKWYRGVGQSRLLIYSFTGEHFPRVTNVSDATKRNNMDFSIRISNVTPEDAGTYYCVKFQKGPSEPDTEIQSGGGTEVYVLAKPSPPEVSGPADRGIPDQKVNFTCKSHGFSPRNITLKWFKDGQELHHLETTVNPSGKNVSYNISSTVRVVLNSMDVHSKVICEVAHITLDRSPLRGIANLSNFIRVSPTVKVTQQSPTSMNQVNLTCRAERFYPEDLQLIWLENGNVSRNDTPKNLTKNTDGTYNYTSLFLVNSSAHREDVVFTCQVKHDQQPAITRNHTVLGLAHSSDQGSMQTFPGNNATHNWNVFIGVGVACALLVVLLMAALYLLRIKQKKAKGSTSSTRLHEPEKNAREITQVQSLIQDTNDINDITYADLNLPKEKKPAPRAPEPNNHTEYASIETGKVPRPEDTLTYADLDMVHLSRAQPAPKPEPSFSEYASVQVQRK
Method: as §1

mouse SIRPA_C57BL/6 = target: T3, mouse SIRPA_C57BL/6 (mouse (C57BL/6), UniProt P97797 32-513); test: cell-based ELISA, transfected 293α cells
T3 construct: FLAG-tagged (pFLAG V5-DEST), on 293α cells
T3 sequence: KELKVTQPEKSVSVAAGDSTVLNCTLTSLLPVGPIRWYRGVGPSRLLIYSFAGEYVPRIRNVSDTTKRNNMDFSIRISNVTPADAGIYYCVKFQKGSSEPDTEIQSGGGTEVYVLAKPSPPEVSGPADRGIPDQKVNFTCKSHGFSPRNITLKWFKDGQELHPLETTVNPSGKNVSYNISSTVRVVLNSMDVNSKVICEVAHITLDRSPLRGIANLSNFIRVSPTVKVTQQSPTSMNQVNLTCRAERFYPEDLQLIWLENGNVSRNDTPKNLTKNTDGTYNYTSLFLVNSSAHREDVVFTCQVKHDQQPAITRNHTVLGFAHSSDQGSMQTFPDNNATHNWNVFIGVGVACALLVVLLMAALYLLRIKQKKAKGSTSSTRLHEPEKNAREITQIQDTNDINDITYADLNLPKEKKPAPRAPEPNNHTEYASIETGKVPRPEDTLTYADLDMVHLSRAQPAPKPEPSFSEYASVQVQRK
Method: as §1

mouse SIRPA_NOD = target: T4, mouse SIRPA_NOD (mouse (NOD), UniProt P97797 32-513); test: cell-based ELISA, transfected 293α cells
T4 construct: FLAG-tagged (pFLAG V5-DEST), on 293α cells; also called NOD SCID
T4 chain: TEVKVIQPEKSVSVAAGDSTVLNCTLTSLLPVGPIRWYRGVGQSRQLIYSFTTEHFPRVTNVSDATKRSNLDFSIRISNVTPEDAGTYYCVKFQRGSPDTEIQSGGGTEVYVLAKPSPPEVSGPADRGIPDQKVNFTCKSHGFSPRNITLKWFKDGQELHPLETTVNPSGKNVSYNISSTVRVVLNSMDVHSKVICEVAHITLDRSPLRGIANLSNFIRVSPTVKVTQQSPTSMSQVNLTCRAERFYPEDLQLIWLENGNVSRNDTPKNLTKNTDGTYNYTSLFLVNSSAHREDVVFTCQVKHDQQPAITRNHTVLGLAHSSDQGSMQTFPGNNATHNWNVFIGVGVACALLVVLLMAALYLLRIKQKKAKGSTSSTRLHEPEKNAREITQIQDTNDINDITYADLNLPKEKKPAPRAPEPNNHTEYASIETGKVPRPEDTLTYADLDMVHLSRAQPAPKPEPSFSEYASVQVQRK
Method: as §1

human SIRPA_V2 protein = target: T5, human SIRPA_V2 protein (human, UniProt P78324 31-504); test: blocking cell-based ELISA: peroxidase-labeled CD47-Fc (1 µg/mL) on 293α cells expressing SIRPA_V2
T5 construct: Expressed on 293α cells from pcDNA3.2 V5-DEST or pFLAG V5-DEST (FLAG-tagged) vectors; also called human SIRPA Variant 2; ECD variant (full-length, amino acids 1 to 504)
T5 sequence (P78324 other isoform, or with tags, fused parts or gaps limits assumed): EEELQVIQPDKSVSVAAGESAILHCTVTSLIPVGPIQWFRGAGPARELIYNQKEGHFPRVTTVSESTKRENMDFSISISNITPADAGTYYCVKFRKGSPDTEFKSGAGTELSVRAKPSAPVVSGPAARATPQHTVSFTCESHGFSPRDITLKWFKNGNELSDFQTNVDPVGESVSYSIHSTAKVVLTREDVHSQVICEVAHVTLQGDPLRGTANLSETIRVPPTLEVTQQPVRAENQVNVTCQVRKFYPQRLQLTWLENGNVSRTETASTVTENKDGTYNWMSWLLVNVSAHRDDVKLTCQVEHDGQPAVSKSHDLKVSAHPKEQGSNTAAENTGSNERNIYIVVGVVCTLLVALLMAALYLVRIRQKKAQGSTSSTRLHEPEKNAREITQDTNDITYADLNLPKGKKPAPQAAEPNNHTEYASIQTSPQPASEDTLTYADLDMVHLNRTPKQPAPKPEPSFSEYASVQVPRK
Method: (§2) After the culture supernatant of the human SIRPA_V1 or V2 expression vector-introduced 293 cells prepared in Example 9)-1 was removed, 50 μL per well of various anti-SIRPA antibodies or various control Human IgG diluted with 5% FBS-containing PBS to a final concentration of 0 to 10,000 ng/ml was added to each of pcDNA3.2 V5-DEST-SIRPA_V1 or V2-introduced 293α cells, immediately followed by addition of 50 µL per well of peroxidase-labeled CD47-Fc prepared with 5% FBS-containing PBS at 1 μg/mL, and the mixture was allowed to stand at 4° C. for one hour. Thereafter, the SIRPA-CD47 binding inhibitory activity was evaluated in the same manner as in 1)-6-3.

human SIRPB = target: T6, human SIRPB (human, UniProt O00241 30-398); test: flow cytometry on CHO-K1 cells expressing FLAG-tagged human SIRPB; PE anti-human IgG; MFI standardized to secondary antibody alone
T6 construct: whole, on cells; FLAG-tagged (pFLAG V5-DEST), on CHO-K1 cells; also called SIRPβ1; signal regulatory protein β1
T6 sequence (O00241 30-398): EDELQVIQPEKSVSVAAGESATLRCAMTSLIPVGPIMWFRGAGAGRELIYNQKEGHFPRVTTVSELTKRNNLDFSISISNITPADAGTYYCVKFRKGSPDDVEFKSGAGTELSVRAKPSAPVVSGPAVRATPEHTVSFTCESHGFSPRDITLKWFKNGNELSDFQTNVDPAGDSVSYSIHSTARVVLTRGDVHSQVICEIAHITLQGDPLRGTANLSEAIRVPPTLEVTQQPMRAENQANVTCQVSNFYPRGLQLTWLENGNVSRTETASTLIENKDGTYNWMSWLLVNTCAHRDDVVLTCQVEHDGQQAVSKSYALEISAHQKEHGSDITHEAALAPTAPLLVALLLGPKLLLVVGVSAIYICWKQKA
Method: SIRPβ1 (signal regulatory protein β1: the amino acid sequence thereof is published as RefSeq accession number NP_006056) and SIRPγ (signal regulatory protein γ: the amino acid sequence thereof is published as RefSeq accession number NP_061026) are molecules belonging to the SIRPA family. In the present invention, “SIRPα” may be referred to as “SIRPA,” “SIRPβ1” may be referred to as […] and “SIRPγ” may be referred to as “SIRPG.” CHO-K1 cells were prepared in a 10% FBS-containing Ham's F-12K medium at 3.3×10⁵ cells/mL and cultured overnight at 37° C. under a 5% CO₂ condition. pFLAG V5-DEST-human SIRPβ, pFLAG V5-DEST-human SIRPG, or pFLAG V5-DEST was introduced into the cells using Lipofectamine LTX (Invitrogen), and cells were cultured in a 10% FBS-containing Ham's F-12K medium at 37° C. under a 5% CO₂ condition for 24 hours. The obtained introduced cells were collected and seeded on a 96-well plate. After the culture supernatant was removed, 100 μL per well of various anti-human SIRPA antibodies or various control human IgG was added to each of various gene introduced cells at a final concentration of 0 to 10,000 ng/mL, and the mixture was allowed to stand at 4° C. for 25 minutes. After the mixture was centrifuged, the supernatant was removed, and cells were washed twice with 5% FBS-containing PBS. After the mixture was centrifuged, the supernatant was removed, 50 μL per well of a 1/400 diluted solution of PE Mouse anti-Human IgG antibody (BioLegend) was added, and the mixture was allowed to stand at 4° C. for 25 minutes. After the mixture was centrifuged, the supernatant was removed, and cells were washed twice with 5% FBS-containing PBS.
(§3) After the mixture was centrifuged, and the supernatant was removed, cells were suspended in 100 μL per well of 1× BD Stabilizing Fixative (Becton Dickinson), and the cell count was measured by flow cytometry (FACS Canto II: Becton Dickinson). For data analysis, FlowJo (TreeStar) was used. Cells were characterized by detecting forward scattered (FSC) light and side-scattered (SSC) light, and then the mean fluorescence intensity of PE was calculated. Binding of various antibodies to the family molecules was calculated by standardizing the fluorescence intensity using the mean fluorescence intensity of a sample in which the secondary antibody alone was allowed to react.

human SIRPA_V1 protein = target: T7, human SIRPA_V1 protein (human, UniProt P78324 31-504); test: blocking cell-based ELISA: peroxidase-labeled CD47-Fc (1 µg/mL) on 293α cells expressing SIRPA_V1
T7 construct: Expressed on 293α cells from pcDNA3.2 V5-DEST or pFLAG V5-DEST (FLAG-tagged) vectors; also called human SIRPA Variant 1; hSIRPA V1
T7 sequence (P78324 31-504 limits assumed): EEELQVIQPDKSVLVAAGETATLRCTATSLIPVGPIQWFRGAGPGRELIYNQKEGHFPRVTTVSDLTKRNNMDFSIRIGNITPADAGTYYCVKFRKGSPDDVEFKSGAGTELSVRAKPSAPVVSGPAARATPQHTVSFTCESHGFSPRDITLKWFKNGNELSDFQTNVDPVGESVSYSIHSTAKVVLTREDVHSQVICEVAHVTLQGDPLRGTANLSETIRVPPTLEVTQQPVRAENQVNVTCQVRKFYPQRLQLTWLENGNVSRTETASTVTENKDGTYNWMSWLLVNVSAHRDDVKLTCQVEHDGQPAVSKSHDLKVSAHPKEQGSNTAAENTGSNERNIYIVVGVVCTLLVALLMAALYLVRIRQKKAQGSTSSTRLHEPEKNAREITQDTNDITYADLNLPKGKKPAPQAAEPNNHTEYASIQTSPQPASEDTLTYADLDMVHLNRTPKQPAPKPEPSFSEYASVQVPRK
Method: as §2

human SIRPG = target: T8, human SIRPG (human, UniProt Q9P1W8 29-387); test: flow cytometry on CHO-K1 cells expressing FLAG-tagged human SIRPG; PE anti-human IgG; MFI standardized to secondary antibody alone
T8 construct: whole, on cells; FLAG-tagged (pFLAG V5-DEST), on CHO-K1 cells; also called SIRPγ; signal regulatory protein γ
T8 sequence (Q9P1W8 29-387): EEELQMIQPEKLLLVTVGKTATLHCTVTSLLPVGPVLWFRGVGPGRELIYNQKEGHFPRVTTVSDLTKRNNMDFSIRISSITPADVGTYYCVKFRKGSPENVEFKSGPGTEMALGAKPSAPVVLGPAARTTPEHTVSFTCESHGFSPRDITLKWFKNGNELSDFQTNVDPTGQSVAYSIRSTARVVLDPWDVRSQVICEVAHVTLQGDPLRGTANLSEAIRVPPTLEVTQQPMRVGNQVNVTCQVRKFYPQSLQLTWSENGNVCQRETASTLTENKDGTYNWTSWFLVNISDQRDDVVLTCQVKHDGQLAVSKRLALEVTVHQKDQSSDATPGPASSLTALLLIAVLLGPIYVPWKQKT
Method: SIRPβ1 (signal regulatory protein β1: the amino acid sequence thereof is published as RefSeq accession number NP_006056) and SIRPγ (signal regulatory protein γ: the amino acid sequence thereof is published as RefSeq accession number NP_061026) are molecules belonging to the SIRPA family. In the present invention, “SIRPα” may be referred to as “SIRPA,” “SIRPβ1” may be referred to as […] and “SIRPγ” may be referred to as “SIRPG.” CHO-K1 cells were prepared in a 10% FBS-containing Ham's F-12K medium at 3.3×10⁵ cells/mL and cultured overnight at 37° C. under a 5% CO₂ condition. pFLAG V5-DEST-human SIRPβ, pFLAG V5-DEST-human SIRPG, or pFLAG V5-DEST was introduced into the cells using Lipofectamine LTX (Invitrogen), and cells were cultured in a 10% FBS-containing Ham's F-12K medium at 37° C. under a 5% CO₂ condition for 24 hours. The obtained introduced cells were collected and seeded on a 96-well plate. After the culture supernatant was removed, 100 μL per well of various anti-human SIRPA antibodies or various control human IgG was added to each of various gene introduced cells at a final concentration of 0 to 10,000 ng/mL, and the mixture was allowed to stand at 4° C. for 25 minutes. After the mixture was centrifuged, the supernatant was removed, and cells were washed twice with 5% FBS-containing PBS. […]
as §3, with “For data analysis, FlowJo (TreeStar) was used.” left out

SIRPA_V1_IgV = target: T9, SIRPA_V1_IgV (human, UniProt P78324 31-149); test: SPR Biacore T200, antibody captured on anti-human IgG (Fc), SIRPA_V1_IgV as analyte (0.25 to 16 nM), 1:1 model
T9 construct: Secreted recombinant protein from FreeStyle 293F cells
T9 sequence (P78324 other isoform, or with tags, fused parts or gaps limits assumed): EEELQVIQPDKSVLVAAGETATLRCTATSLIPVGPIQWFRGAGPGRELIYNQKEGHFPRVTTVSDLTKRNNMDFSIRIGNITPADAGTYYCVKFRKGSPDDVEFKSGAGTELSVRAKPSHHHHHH
Method: (§4) The dissociation constants were measured by a capture method comprising capturing each antibody as a ligand to an Anti-Human IgG (Fc) antibody immobilized using Human Antibody Capture Kit (GE Healthcare Bioscience Corp.) and measuring an antigen as an analyte, using Biacore T200 (GE Healthcare Bioscience Corp.). HBS-EP+ (GE Healthcare Bioscience Corp.) was used as a running buffer, and CM5 (GE Healthcare Bioscience Corp.) was used as a sensor chip. Onto the chip, 2 μg/mL of various antibodies were added at 10 μL/min for 30 seconds, then a serially diluted solution (0.25 to 16 nM) of the human SIRPA protein as an antigen was added at a flow rate of 30 μL/min for 120 seconds, and subsequently the dissociation phase for 600 seconds was monitored. As a regenerant, 3 M magnesium chloride (GE Healthcare Bioscience Corp.) was added at a flow rate of 20 μL/min for 30 seconds. For data analysis, a binding rate constant (ka), a dissociation rate constant (kd), and a dissociation constant (KD; KD=kd/ka) were calculated using a 1:1 binding model.

SIRPA_V2_IgV = target: T10, SIRPA_V2_IgV (human); test: SPR Biacore T200, antibody captured on anti-human IgG (Fc), SIRPA_V2_IgV as analyte (0.25 to 16 nM), 1:1 model
T10 construct: Secreted recombinant protein; The crystal model held residues 33 to 143 of human SIRPA Variant 2
T10 sequence (chain, as listed by the source limits assumed): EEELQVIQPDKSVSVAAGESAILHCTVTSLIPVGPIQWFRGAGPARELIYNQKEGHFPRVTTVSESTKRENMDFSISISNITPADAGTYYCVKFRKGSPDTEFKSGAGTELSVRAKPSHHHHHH
Method: as §4

binding result (mouse SIRPA BALB/c): no binding | binding result (mouse SIRPA_129): no binding | binding result (mouse SIRPA_C57BL/6): no binding | binding result (mouse SIRPA_NOD): no binding
B1: rat anti-human SIRPA monoclonal antibody D13 (antibody, V domains shown)
VH: EVQLVESGGGLVQPGRSLKLSCLASGFTFSDYGMIWVRQAPGKGLEWVASISSSSSYIYYADTVKGRFTISRENAKNTLFLHMTSLRSEDTALYYCARRYYGFNYPFDYWGQGVMVTVSS
VL: DTVLTQSPALAVSLGQRVTISCGASKSVRTYMHWYQQKSGQQPKLLIYSASNLEAGVPSRFSGSGSGTDFTLTIDPVEADDIANYYCQQSNEPPYTFGAGTKLELK
notes: Rat IgG1/kappa purified from hybridoma

IC50 (human SIRPA_V2 protein): 2.12 µg/mL | EC50 (read off the curve) (human SIRPB): ~0.2 µg/mL | IC50 (human SIRPA_V1 protein): 2.97 µg/mL | binding result (human SIRPG): binds | Kd (SIRPA_V1_IgV): 4.39 nM | Kd (SIRPA_V2_IgV): 6.32 nM
B2: ADU-1805 (antibody, human IgG2, kappa, V domains shown)
VH: EVQLVQSGAEVVKPGASVKLSCKASGSTFTSYWMHWVKQAPGQGLEWIGAIYPVNSDTTYNQKFKGKATLTVDKSASTAYMELSSLRSEDTAVYYCTRSFYYSLDAAWFVYWGQGTLVTVSS
VL: DIQMTQSPSSLSASVGDRVTITCRASQDIGSRLNWLQQKPGKAPKRLIYATSSLDSGVPSRFSGSGSGTEFTLTISSLQPEDFATYYCLQYASSPFTFGGGTKVEIKR
notes: IgG2 heavy chain; also called ADU-1805_hG2 / ADU-1805_hK
